From the supplement of paper PMC9876800

Test system: peptide library, one residue held at a place counted from the S/T acceptor
Assay: relative phosphorylation of the sub-library (ratio to the mean residue at this position); human; higher = residue favoured
Outline: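 Purified recombinant kinases (human or orthologue constructs) were incubated in 384-well plates with biotinylated degenerate peptide sub-libraries, each fixing one residue at one position around a central Ser/Thr. Peptides were at 50 μM, with 50 μM ATP spiked with γ-32P-ATP, for 90 min under kinase-specific conditions. Spots on streptavidin membranes were phosphorimaged and quantified by densitometry. Relative sub-library phosphorylation is a ratio to the mean residue at that position.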

Chain of TSSK1B, construct: Full length (Q9BXA7 whole entry, looked up): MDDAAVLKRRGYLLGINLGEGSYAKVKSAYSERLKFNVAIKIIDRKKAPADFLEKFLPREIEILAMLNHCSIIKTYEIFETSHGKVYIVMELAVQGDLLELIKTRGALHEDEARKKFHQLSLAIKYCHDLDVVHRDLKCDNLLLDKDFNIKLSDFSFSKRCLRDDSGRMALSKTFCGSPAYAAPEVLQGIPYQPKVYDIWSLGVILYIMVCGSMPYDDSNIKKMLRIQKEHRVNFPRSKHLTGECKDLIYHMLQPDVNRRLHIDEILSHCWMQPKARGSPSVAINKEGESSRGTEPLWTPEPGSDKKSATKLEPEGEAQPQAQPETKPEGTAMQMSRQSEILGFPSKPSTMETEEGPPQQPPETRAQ

TSSK1B, construct: Full length (from UniProt Q9BXA7)
relative phosphorylation
Conditions	at +1	at +2	at +3	at +4	at -1	at -2	at -3	at -4	at -5
A fixed	0.896	1.04	0.82	0.786	1.15	1.84	0.918	1.21	1.05
D fixed	0.619	0.465	1.55	0.621	0.453	0.495	0.378	0.625	0.389
E fixed	0.69	0.497	0.747	0.452	0.506	0.474	0.532	0.883	0.371
F fixed	1.1	0.97	1.09	1.33	0.617	0.565	0.497	0.643	0.99
G fixed	0.884	1.4	0.809	0.639	1.08	1.2	1.08	1.29	0.635
H fixed	1.1	1.99	1.29	0.768	0.957	0.981	1.01	1.23	0.57
I fixed	0.854	1.56	0.66	2.06	0.502	0.661	0.421	0.677	1.61
K fixed	1.43	0.385	0.945	0.621	2.08	2.53	2.55	2.11	0.612
L fixed	1.03	1.53	0.758	2.43	0.683	0.423	0.418	0.73	2.77
M fixed	1.23	1.21	0.953	1.9	0.885	0.681	0.607	1.12	1.14
N fixed	1.05	0.881	1.92	0.793	0.98	1.22	0.887	0.889	0.477
P fixed	0.176	0.61	0.392	0.702	1.96	0.794	1.3	0.592	1.26
Q fixed	1.38	0.997	1.07	0.683	1.17	1.29	0.858	0.864	0.783
R fixed	1.54	0.586	0.953	0.529	1.98	1.72	3.76	1.81	1.09
V fixed	0.935	1.07	0.632	1.34	0.59	1.11	0.545	0.797	1.76
W fixed	0.893	0.845	1.56	0.719	0.601	0.401	0.465	0.73	0.734
Y fixed	1.19	0.96	0.851	0.62	0.817	0.623	0.772	0.805	0.767
pThr fixed	0.709	0.515	0.365	0.424	0.191	0.303	0.574	0.596	0.457
pTyr fixed	0.793	0.437	0.381	0.396	0.445	0.326	0.424	0.432	0.65
